This note sets out measurements from paper PMC11257990.

The assay has as its target CUL9 (endogenous, U2OS) (human (endogenous in U2OS)) (UniProt Q8IWT3). As to the kind of experiment: sucrose gradient fractionation; 1 mg U2OS lysate on a continuous 5–40% sucrose gradient, 160,000g, 16 h, 4 °C; fractions immunoblotted for CUL9; purified hexameric CUL9–RBX1 and dimeric CUL9^(R125A Y152A)–RBX1 run for comparison. To be noted: remark: other sources report otherwise. In general terms: Immunoblotting shows a protein as a band on a membrane.

Where “and” joins values, the source holds several entries; their conditions need not be identical. Equal values may be shown once.

With CUL9 (endogenous, U2OS), Q8IWT3 1-2517, the stoichiometry N (in general, a count of units in the complex or per binding partner) is 6 and 2.
